This is an account of results in patent US20210361776A1 (Seagen, published 2021).

For orientation: EC50 means the concentration that produces a half-maximal response. For orientation: kon means the rate constant with which the complex forms. Usually koff stands for the rate constant with which the complex falls apart.

The target in assay [1] is T1, human Glypican 3 (GPC3) on GPC3-positive cells (human, UniProt P51654 25-554).
T1 construct: whole, on cells; the methods say only 'GPC3-positive cells'; also called hGPC3
Put plainly: competition with AlexaFluor-488 labeled mGPC3-1 on GPC3-positive cells, flow cytometry. Here is the method:
(§1) Cells were centrifuged, washed 3 times with PBS, and resuspended in 125 μL of a PBS+2% FBS solution. […] The EC50 was extrapolated by fitting the data to a sigmoidal dose-response curve with variable slope.

Assay [2] deals with T2, Human GPC3 (hGPC3 GP3-H5258, AcroBiosystems), biotinylated (human, UniProt P51654 25-559, biotinylated with Pierce NHS-LC-LC-Biotin at 1.5:1 biotin/protein ratio).
T2 construct: Bought protein; also called immobilized hGPC3
Put plainly: BLI (Octet Red 384), biotinylated hGPC3 on SAX biosensors, hGPC3-1ec as analyte, bivalent binding, 1:1 fit; bivalent binding, kinetic 1:1 fit (kdiss/kon). As for the experimental part: (§2) Human GPC3 (hGPC3 GP3-H5258) was purchased from AcroBiosystems and biotinylated using Pierce NHS-LC-LC-Biotin at a molar ratio of 1.5:1 biotin/protein ratio. Biolayer interferometry (BLI) was performed on an Octet Red 384 system (ForteBio) with High Precision Streptavidin (SAX) Biosensors and GPC3 as the probe using hGPC3-1ec as the analyte.
(In general: In BLI a coated tip is dipped into the sample, and binding shifts an interference pattern.)

Assay [3] addresses T2, Human GPC3 (hGPC3 GP3-H5258, …). Put plainly: BLI/SPR steady state: 600 second maximum response against concentration, half maximal binding (FIG. 6); binding affinity from FIG. 6, not the bivalent kinetic fit. Here is the method:
(Left) Multiple sensorgrams represent several concentrations (400, 160, 64, 25.6, 10.2, 4.1, and 1.64 nM) of hGPC3-1ec associating with immobilized hGPC3. (Right) The KD was determined by plotting the 600 second maximum response for each concentration and was defined by half maximal binding.
as §2

Assay [4] has the same target. Nature of the assay: BLI (Octet Red 384), biotinylated hGPC3 on SAX biosensors, hGPC3-1ec as analyte, bivalent binding, 1:1 fit, association 600 sec; bivalent binding, kinetic 1:1 fit, association of 600 sec. As for the experimental part: as §2
Assay [5] shares this target. Nature of the assay: BLI (Octet Red 384), biotinylated hGPC3 on SAX biosensors, hGPC3-1ec as analyte, bivalent binding, 1:1 fit, dissociation 1800 sec; bivalent binding, kinetic 1:1 fit, disassociation of 1800 sec. Here is the method: as §2
The target in assay [6] is T1, human Glypican 3 (GPC3) on …. Put plainly: competition with AlexaFluor-488 labeled mGPC3-1 on GPC3-positive cells, flow cytometry. Here is the method: as §1
This is another data set of the same source. (In general: A flow cytometer gives signals particle by particle.)

Like-named read-outs stand apart in the source and are kept apart here.

T2 sequence (P51654 25-559 limits assumed): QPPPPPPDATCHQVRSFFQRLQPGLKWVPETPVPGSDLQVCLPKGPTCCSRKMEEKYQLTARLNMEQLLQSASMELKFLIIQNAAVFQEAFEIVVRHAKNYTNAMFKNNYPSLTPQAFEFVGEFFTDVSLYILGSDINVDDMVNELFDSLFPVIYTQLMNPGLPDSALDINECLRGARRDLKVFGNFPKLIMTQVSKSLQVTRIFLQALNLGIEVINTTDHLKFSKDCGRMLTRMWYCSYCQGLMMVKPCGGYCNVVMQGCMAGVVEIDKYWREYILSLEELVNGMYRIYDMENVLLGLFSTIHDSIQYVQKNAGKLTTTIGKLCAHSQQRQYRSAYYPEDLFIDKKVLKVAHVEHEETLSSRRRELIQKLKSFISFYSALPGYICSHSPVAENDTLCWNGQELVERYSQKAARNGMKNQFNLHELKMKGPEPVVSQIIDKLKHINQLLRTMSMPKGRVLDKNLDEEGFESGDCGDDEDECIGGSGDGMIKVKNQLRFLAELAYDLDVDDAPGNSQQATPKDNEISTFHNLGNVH
T1 sequence (P51654 25-554 limits assumed): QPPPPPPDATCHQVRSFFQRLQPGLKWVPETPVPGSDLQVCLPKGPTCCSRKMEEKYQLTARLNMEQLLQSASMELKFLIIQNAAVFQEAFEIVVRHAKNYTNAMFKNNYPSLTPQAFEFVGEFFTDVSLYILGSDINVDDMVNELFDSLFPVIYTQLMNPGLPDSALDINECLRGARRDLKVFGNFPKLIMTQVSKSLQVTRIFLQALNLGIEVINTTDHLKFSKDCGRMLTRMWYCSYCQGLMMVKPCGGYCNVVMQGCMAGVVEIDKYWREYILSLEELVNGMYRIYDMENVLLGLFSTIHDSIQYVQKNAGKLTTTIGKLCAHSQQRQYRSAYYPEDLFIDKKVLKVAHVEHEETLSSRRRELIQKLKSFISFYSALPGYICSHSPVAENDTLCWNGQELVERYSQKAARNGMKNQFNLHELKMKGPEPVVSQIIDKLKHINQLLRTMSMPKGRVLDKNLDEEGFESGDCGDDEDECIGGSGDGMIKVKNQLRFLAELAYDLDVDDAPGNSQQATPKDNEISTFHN

B1: hGPC3-1 HCLB (antibody, V domains shown)
VH: EVQLVQSGAEVKKPGATVKISCKASGYTFTDYEMHWVQQAPGKGLEWIGGIDPETGGTAYNQKFKGRATLTADKSTDTAYMELSSLRSEDTAVYYCGRYYSFAYWGQGTLVTVSS
VL: DVVMTQSPLSLPVTLGQPASISCRSSQSIVHSNGNTYLQWFQQRPGQSPRLLIYKVSNRFSGVPDRFSGSGSGTDFTLKISRVEAEDVGVYYCFQVSHVPYTFGQGTKLEIK
notes: Kabat positions
B1 came in with an EC50 in assay [1] of 18 nM.

B2: hGPC3-1ec (HBLE) (antibody, V domains shown)
VH: EVQLVQSGAEVKKPGATVKISCKVSGYTFTDYEMHWVQQAPGKGLEWMGGIDPETGGTAYNQKFKGRVTLTADKSTDTAYMELSSLRSEDTAVYYCGRYYSFAYWGQGTLVTVSS
VL: DVVMTQSPLSLPVTLGQPASISCRSSQSIVHSNANTYLQWFQQRPGQSPRLLIYKVSNRFSGVPDRFSGSGSGTDFTLKISRVEAEDVGVYYCFQVSHVPYTFGQGTKLEIK
notes: HBLE variable regions on IgG1 with a cysteine substitution at position 239 of the heavy chain (S239C, EU index); 'ec' marks this; Tested unconjugated; also called humanized GPC3-1ec
In the case of B2, the Kd in assay [2] worked out at 0.204 nM; in assay [3], 14 nM. The kon in assay [4] came out at 113000 M⁻¹ s⁻¹. Also, the off-rate (koff) in assay [5] stood at 2.3e-05 s⁻¹.

B3: hGPC3-1 HALC (antibody, V domains shown)
VH: QVQLVQSGAEVKKPGASVKVSCKASGYTFTDYEMHWVRQAPGQGLEWIGGIDPETGGTAYNQKFKGRATLTADTSTSTAYMELRSLRSDDTAVYYCARYYSFAYWGQGTLVTVSS
VL: DVVMTQSPLSLPVTLGQPASISCRSSQSIVHSNGNTYLQWFQQRPGQSPKLLIYKVSNRFSGVPDRFSGSGSGTDFTLKISRVEAEDVGVYYCFQVSHVPYTFGQGTKLVMK
notes: Kabat positions
B3: the half-maximal effective concentration (EC50) in assay [1] turned out to be 63 nM.

B4: hGPC3-1 HBLB-V (antibody, V domains shown)
VH: EVQLVQSGAEVKKPGATVKISCKVSGYTFTDYEMHWVQQAPGKGLEWMGGIDPETGGTAYNQKFKGRVTLTADKSTDTAYMELSSLRSEDTAVYYCGRYYSFAYWGQGTLVTVSS
VL: DVVMTQSPLSLPVTLGQPASISCRSSQSIVHSNVNTYLQWFQQRPGQSPRLLIYKVSNRFSGVPDRFSGSGSGTDFTLKISRVEAEDVGVYYCFQVSHVPYTFGQGTKLEIK
notes: Kabat position
In assay [6], B4 yielded a half-maximal effective concentration (EC50) of 4 nM.

B5: hGPC3-1 HBLE (antibody, V domains shown)
VH: EVQLVQSGAEVKKPGATVKISCKVSGYTFTDYEMHWVQQAPGKGLEWMGGIDPETGGTAYNQKFKGRVTLTADKSTDTAYMELSSLRSEDTAVYYCGRYYSFAYWGQGTLVTVSS
VL: DVVMTQSPLSLPVTLGQPASISCRSSQSIVHSNANTYLQWFQQRPGQSPRLLIYKVSNRFSGVPDRFSGSGSGTDFTLKISRVEAEDVGVYYCFQVSHVPYTFGQGTKLEIK
notes: Only variable regions are tied to the antibody; also called lead humanized GPC3-1 antibody
B5 yielded an EC50 in assay [6] of 3 nM.

B6: hGPC3-1 HBLD (antibody, V domains shown)
VH: EVQLVQSGAEVKKPGATVKISCKVSGYTFTDYEMHWVQQAPGKGLEWMGGIDPETGGTAYNQKFKGRVTLTADKSTDTAYMELSSLRSEDTAVYYCGRYYSFAYWGQGTLVTVSS
VL: DVVMTQSPLSLPVTLGQPASISCRSSQSIVHSDGNTYLQWFQQRPGQSPRLLIYKVSNRFSGVPDRFSGSGSGTDFTLKISRVEAEDVGVYYCFQVSHVPYTFGQGTKLEIK
notes: Kabat positions
B6 came in with an EC50 in assay [6] of 74 nM.

B7: hGPC3-1 HBLC (antibody, V domains shown)
VH: EVQLVQSGAEVKKPGATVKISCKVSGYTFTDYEMHWVQQAPGKGLEWMGGIDPETGGTAYNQKFKGRVTLTADKSTDTAYMELSSLRSEDTAVYYCGRYYSFAYWGQGTLVTVSS
VL: DVVMTQSPLSLPVTLGQPASISCRSSQSIVHSNGNTYLQWFQQRPGQSPKLLIYKVSNRFSGVPDRFSGSGSGTDFTLKISRVEAEDVGVYYCFQVSHVPYTFGQGTKLVMK
notes: Kabat positions
In assay [1], B7 displayed a 50% effective concentration (EC50) of 25 nM.

B8: hGPC3-1 HDLB (antibody, V domains shown)
VH: EVQLVQSGAEVKKPGATVKISCKASGYTFTDYEMHWVKQAPGKGLEWIGGIDPETGGTAYNQKFKGKATLTADKSTDTAYMELSSLRSEDTAVYYCGRYYSFAYWGQGTLVTVSS
VL: DVVMTQSPLSLPVTLGQPASISCRSSQSIVHSNGNTYLQWFQQRPGQSPRLLIYKVSNRFSGVPDRFSGSGSGTDFTLKISRVEAEDVGVYYCFQVSHVPYTFGQGTKLEIK
notes: Kabat positions
The molecule B8 had an EC50 in assay [1] of 10 nM.

B9: hGPC3-1 HDLC (antibody, V domains shown)
VH: EVQLVQSGAEVKKPGATVKISCKASGYTFTDYEMHWVKQAPGKGLEWIGGIDPETGGTAYNQKFKGKATLTADKSTDTAYMELSSLRSEDTAVYYCGRYYSFAYWGQGTLVTVSS
VL: DVVMTQSPLSLPVTLGQPASISCRSSQSIVHSNGNTYLQWFQQRPGQSPKLLIYKVSNRFSGVPDRFSGSGSGTDFTLKISRVEAEDVGVYYCFQVSHVPYTFGQGTKLVMK
notes: Kabat positions
Regarding B9, the EC50 in assay [1] was determined as 13 nM.

B10: hGPC3-1 HALB (antibody, V domains shown)
VH: QVQLVQSGAEVKKPGASVKVSCKASGYTFTDYEMHWVRQAPGQGLEWIGGIDPETGGTAYNQKFKGRATLTADTSTSTAYMELRSLRSDDTAVYYCARYYSFAYWGQGTLVTVSS
VL: DVVMTQSPLSLPVTLGQPASISCRSSQSIVHSNGNTYLQWFQQRPGQSPRLLIYKVSNRFSGVPDRFSGSGSGTDFTLKISRVEAEDVGVYYCFQVSHVPYTFGQGTKLEIK
notes: Kabat position
Turning to B10, the half-maximal effective concentration (EC50) in assay [1] stood at 91 nM.

B11: hGPC3-1 HBLB (antibody, V domains shown)
VH: EVQLVQSGAEVKKPGATVKISCKVSGYTFTDYEMHWVQQAPGKGLEWMGGIDPETGGTAYNQKFKGRVTLTADKSTDTAYMELSSLRSEDTAVYYCGRYYSFAYWGQGTLVTVSS
VL: DVVMTQSPLSLPVTLGQPASISCRSSQSIVHSNGNTYLQWFQQRPGQSPRLLIYKVSNRFSGVPDRFSGSGSGTDFTLKISRVEAEDVGVYYCFQVSHVPYTFGQGTKLEIK
notes: Kabat position
With B11, the EC50 in assay [1] came out at 14 nM; in assay [6] it was 3 nM.

B12: hGPC3-1 HCLA (antibody, V domains shown)
VH: EVQLVQSGAEVKKPGATVKISCKASGYTFTDYEMHWVQQAPGKGLEWIGGIDPETGGTAYNQKFKGRATLTADKSTDTAYMELSSLRSEDTAVYYCGRYYSFAYWGQGTLVTVSS
VL: DVVMTQSPLSLPVTLGQPASISCRSSQSIVHSNGNTYLQWFQQRPGQSPRRLIYKVSNRFSGVPDRFSGSGSGTDFTLKISRVEAEDVGVYYCFQVSHVPYTFGQGTKLEIK
notes: Kabat positions
Consider B12, for which the midpoint of the response in assay [1], the EC50, lay at 76 nM.

B13: hGPC3-1 HBLB-Q (antibody, V domains shown)
VH: EVQLVQSGAEVKKPGATVKISCKVSGYTFTDYEMHWVQQAPGKGLEWMGGIDPETGGTAYNQKFKGRVTLTADKSTDTAYMELSSLRSEDTAVYYCGRYYSFAYWGQGTLVTVSS
VL: DVVMTQSPLSLPVTLGQPASISCRSSQSIVHSQGNTYLQWFQQRPGQSPRLLIYKVSNRFSGVPDRFSGSGSGTDFTLKISRVEAEDVGVYYCFQVSHVPYTFGQGTKLEIK
notes: Kabat positions
For B13, in assay [6], the EC50 came to 7 nM.

B14: hGPC3-1 HBLA (antibody, V domains shown)
VH: EVQLVQSGAEVKKPGATVKISCKVSGYTFTDYEMHWVQQAPGKGLEWMGGIDPETGGTAYNQKFKGRVTLTADKSTDTAYMELSSLRSEDTAVYYCGRYYSFAYWGQGTLVTVSS
VL: DVVMTQSPLSLPVTLGQPASISCRSSQSIVHSNGNTYLQWFQQRPGQSPRRLIYKVSNRFSGVPDRFSGSGSGTDFTLKISRVEAEDVGVYYCFQVSHVPYTFGQGTKLEIK
notes: Kabat positions
As to B14, the 50% effective concentration (EC50) in assay [1] is 203 nM.

B15: hGPC3-1 HCLC (antibody, V domains shown)
VH: EVQLVQSGAEVKKPGATVKISCKASGYTFTDYEMHWVQQAPGKGLEWIGGIDPETGGTAYNQKFKGRATLTADKSTDTAYMELSSLRSEDTAVYYCGRYYSFAYWGQGTLVTVSS
VL: DVVMTQSPLSLPVTLGQPASISCRSSQSIVHSNGNTYLQWFQQRPGQSPKLLIYKVSNRFSGVPDRFSGSGSGTDFTLKISRVEAEDVGVYYCFQVSHVPYTFGQGTKLVMK
notes: Kabat positions
In assay [1], B15 displayed a concentration giving a half-maximal response (EC50) of 19 nM.

B16: hGPC3-1 HDLA (antibody, V domains shown)
VH: EVQLVQSGAEVKKPGATVKISCKASGYTFTDYEMHWVKQAPGKGLEWIGGIDPETGGTAYNQKFKGKATLTADKSTDTAYMELSSLRSEDTAVYYCGRYYSFAYWGQGTLVTVSS
VL: DVVMTQSPLSLPVTLGQPASISCRSSQSIVHSNGNTYLQWFQQRPGQSPRRLIYKVSNRFSGVPDRFSGSGSGTDFTLKISRVEAEDVGVYYCFQVSHVPYTFGQGTKLEIK
notes: Kabat positions
Molecule B16 registered an EC50 in assay [1] of 149 nM.

B17: murine GPC3-1 antibody (antibody, V domains shown)
VH: QVQLQQSGAELVRPGASVTLSCKASGYTFTDYEMHWVKQTPVHGLEWIGGIDPETGGTAYNQKFKGKATLTADKSSSTAYMDLRSLTSEDSAVYYCGRYYSFAYWGQGTLVTVSA
VL: DVLMTQTPLSLPLSLGDQASISCRSSQSIVHSNGNTYLQWFLQKPGQSPKLLIYKVSNRFSGVPDRFSGSGSGTDFTLKIGRVEAEDLGVYYCFQVSHVPYTFGGGTKLVMK
notes: Murine hybridoma IgG; also called mGPC3-1
Take B17: the EC50 in assay [1] was determined as 9 nM.
